In patent US20230065562A1, “DUAL CONTROLS FOR THERAPEUTIC CELL ACTIVATION OR ELIMINATION” (Bellicum Pharmaceuticals, Inc., priority 2015, published 2023):
Residue numbers refer to the chain shown, from its start. Names may count otherwise.

B1: S196A: modified iCasp9, S196A (protein)
chain: VDGFGDVGALESLRGNADLAYILSMEPCGHCLIINNVNFCRESGLRTRTGSNIDCEKLRRRFSALHFMVEVKGDLTAKKMVLALLELARQDHGALDCCVVVILSHGCQASHLQFPGAVYGTDGCPVSVEKIVNIFNGTSCPSLGGKPKLFFIQACGGEQKDHGFEVASTSPEDESPGSNPEPDATPFQEGLRTFDQLDAISSLPTPSDIFVSYSTFPGFVSWRDPKSGSWYVETLDDIFEQWAHSEDLQSLLLRVANAVSVKGIYKQMPGCFNFLRKKLFFKTSASRA
B2: D330A-S144A: modified iCasp9 double mutant (protein)
chain: B1 chain with S12A, A64S, D198A
B3: D330A-S144D: modified iCasp9 double mutant (protein)
chain: B1 chain with S12D, A64S, D198A
B4: D330A-S183A: modified iCasp9 double mutant (protein, UniProt P55211 1-416, looked up, variant D330A S183A)
chain: MDEADRRLLRRCRLRLVEELQVDQLWDALLSRELFRPHMIEDIQRAGSGSRRDQARQLIIDLETRGSQALPLFISCLEDTGQDMLASFLRTNRQAAKLSKPTLENLTPVVLRPEIRKPEVLRPETPRPVDIGSGGFGDVGALESLRGNADLAYILSMEPCGHCLIINNVNFCRESGLRTRTGANIDCEKLRRRFSSLHFMVEVKGDLTAKKMVLALLELAQQDHGALDCCVVVILSHGCQASHLQFPGAVYGTDGCPVSVEKIVNIFNGTSCPSLGGKPKLFFIQACGGEQKDHGFEVASTSPEDESPGSNPEPDATPFQEGLRTFDQLAAISSLPTPSDIFVSYSTFPGFVSWRDPKSGSWYVETLDDIFEQWAHSEDLQSLLLRVANAVSVKGIYKQMPGCFNFLRKKLFFKTS
modifications: FKBP12-F36V fusion (iCasp9), CARD deleted
notes: modified iCasp9 double mutant
B5: D330A-S196A: modified iCasp9 double mutant (protein)
chain: B1 chain with D198A
B6: N405Q-S144A: modified iCasp9 double mutant (protein)
chain: B1 chain with S12A, A64S, N273Q
B7: N405Q-S144D: modified iCasp9 double mutant (protein, UniProt P55211 1-416, looked up, variant N405Q S144D)
chain: B4 chain with S144D, A183S, A330D, N405Q
modifications: FKBP12-F36V fusion (iCasp9), CARD deleted
notes: modified iCasp9 double mutant
B8: N405Q-S144Aco: codon-optimized double mutant, class predicted (protein, UniProt P55211 1-416, looked up, variant N405Q S144A)
chain: B4 chain with S144A, A183S, A330D, N405Q
modifications: FKBP12-F36V fusion (iCasp9), codon-optimized
notes: codon-optimized double mutant, class predicted
B9: N405Qco: codon-optimized version of N405Q modified Caspase-9 (protein, UniProt P55211 1-416, looked up, variant N405Q)
chain: B4 chain with A183S, A330D, N405Q
modifications: FKBP12-F36V fusion (iCasp9), codon-optimized
B10: S307A: modified iCasp9, S307A (protein, UniProt P55211 1-416, looked up, variant S307A)
chain: B4 chain with A183S, S307A, A330D
modifications: FKBP12-F36V fusion (iCasp9), CARD deleted
B11: Y153A: modified iCasp9, Y153A (protein, UniProt P55211 1-416, looked up, variant Y153A)
chain: B4 chain with Y153A, A183S, A330D
modifications: FKBP12-F36V fusion (iCasp9), CARD deleted
B12: D330A-Y153F: modified iCasp9 double mutant (protein, UniProt P55211 1-416, looked up, variant D330A Y153F)
chain: B4 chain with Y153F, A183S
modifications: FKBP12-F36V fusion (iCasp9), CARD deleted
notes: modified iCasp9 double mutant
B13: D330A-T317E: modified iCasp9 double mutant (protein, UniProt P55211 1-416, looked up, variant D330A T317E)
chain: B4 chain with A183S, T317E
modifications: FKBP12-F36V fusion (iCasp9), CARD deleted
notes: modified iCasp9 double mutant
B14: ^402GCFNF^406QPTFT: modified iCasp9, residues 402-406 replaced by Caspase-8 QPTFT (protein, UniProt P55211 1-416, looked up, variant G402Q C403P F404T N405F F406T)
chain: B4 chain with A183S, A330D, G402Q, C403P, F404T, N405F, F406T
modifications: FKBP12-F36V fusion (iCasp9), CARD deleted
notes: modified iCasp9, residues 402-406 replaced by Caspase-8 QPTFT
B15: S144A: modified iCasp9, S144A (protein)
chain: B1 chain with S12A, A64S
B16: S144D: modified iCasp9, S144D (protein)
chain: B1 chain with S12D, A64S
B17: S196D: modified iCasp9, S196D (protein)
chain: B1 chain with A64D

Tested on: HEK293T/16 cells
Assay: Secreted alkaline phosphatase (SEAP)-based surrogate killing assay of iCasp9 mutants
Type: cell-based, human
Conditions: for Basal Activity (relative to wild type/unmodified Caspase-9): SEAP assay without AP1903

Row | Molecule | Basal Activity (relative to wild type/unmodified Caspase-9) | Basal Activity (relative to wild type), predicted mutants (*) (marked '*, predicated')
1 | B1 | Decreased | 
2 | B2 | Decreased | 
3 | B3 | Decreased | 
4 | B4 | Decreased | 
5 | B5 | Decreased | 
6 | B6 | Decreased | 
7 | B7 | Decreased | 
8 | B8 |  | Decreased
9 | B9 | Decreased | 
10 | B10 | Decreased | 
11 | B11 | Decreased | 
12 | B12 | dead | 
13 | B13 | dead | 
14 | B14 | dead | 
15 | B15 | Decreased | 
16 | B16 | Decreased | 
17 | B17 | Decreased | 
